assay: yeast display, Sf9 membrane polyspecificity reagent, FACS + sequencing; frameworks hold sequencing errors
In short: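 After 36–48 hours of galactose induction, yeast (Saccharomyces cerevisiae BJ5465) displaying a synthetic nanobody library were stained at 4 °C for 1 hour with 10% biotinylated, detergent-solubilized Sf9 membrane reagent. Streptavidin microbeads enriched the stained cells before FACS sorting into low and high (top ~1%) gates on anti-HA and streptavidin fluorescence. Each clone's polyreactivity label reflects its gate of origin.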

Row | Sequence | polyreactivity (PSR sort gate)
1 | QVQLVESGGGLVQAGGSLRLSCAASGRTFYSNAMGWYRPAPGKERELVAAITFGGGSTYYADSVKGRFTISRDNAKNTVYVQMNSLKPEDTAVYYCAAEGYKYRFYYWGQGTQVTVSS | low polyreactivity
2 | QVQLVESGGGLVQAGGSLRLTCAASGSTFSKNAMGWYRQATGNERELVASISSSVGSTYYSDSVKGRFTISRDNAKNTVYLQMNSLKPEDTAVYYCATRRGRGYYYWGQGTQVTVSS | high polyreactivity
3 | QVQLVESGGGLVQAGGSLRLSCAASGSTFTYNTMGWYRQAPGKERELVAAINTTGNTYADSVKGRFTISRDNAKNTVYLQMNSLKPEDTAVYYCNTDYVPRRHDMDYWGQGTQVTVSS | low polyreactivity
4 | QVQLVESGGGLVQAGGSLRLSCAASGRTVWSNAMGWYRQAPGKEREFVASISRTGVNTYYADSVKGRFTISRDYAKNSVYLQMNSLKPEDTAVYYCNVYSARRGVGTLARYSEYDYWGQGTQVTVSS | high polyreactivity
5 | QVQLVESGGGLVQAGGSLRLSCAASGGTFKLYAMGWYRQAPGKERELVAAISRRGGSTYYADSVKGRFTISRDNAKNTVYLQMNSLKPEDTAVYYCAAPGPTQSTQRGGYWGQGTQVTVSS | high polyreactivity
6 | QVQLVESGGGLVQAGGSLRLSCAASGLIFPRYAMGWYRQAPGKVSELVAAITWSGGSTFYADSVKGRFTISRDTAKNTVYLQMNSLKPEDTAVYYCAAQDASERTYGYDGYYYWGQGTQVTVSS | low polyreactivity
7 | QVQLVESGGGSLRLSCAASGLTFGGYTMGWIRQAPGKERELVAAISSSDSTNYADSVKGRFTISRDNAKNTVYVQMNSLKPEDTALYSCSADSGQWSRYSSFGDEGDSWGQGTQVTVSS | low polyreactivity
8 | QVQLVESGGGLVQAGGSLRLSCAASGRIIKYYTMGWYRQAPGKERELVASITGTGGSTYYADSVKGRFTISRDNAKNTVYLQMNSLKPEDTAVYYCAARLSVLGGYRGRNAWRFDHWGQGTQVTVSS | high polyreactivity
9 | QVQLVEAGGGLVQAGGSLRLSCAASGFTISSNAMGWYRQAPGKERELVAAISFNSTSTYYADSVKGRFTISRDNAKNSVYLQMNSLKPEDTAVYYCSADVPRVQSEPEYDYWGQGTQVTVSS | low polyreactivity
10 | QVLLQESGGGLVQPGGSLLLSCAASGNIFSAGGMGWYRQAPVNEPELVAGIGTGTSTNYADSVKGRFTISRDNAKNTVFLQMNSLNPEDTAVYYCAAAYYSGLSHWYWGQGTQVTVSS | low polyreactivity
11 | QDQLVESGGGLVQAGGSLRISCAASGFTFDENAMGWYRQAPGINYSGASTYYADSVKGRFTISRDNAKNTVYLQMYSLKPEDTAVYYCAAEVVALMNYWGQGSQVTVSS | low polyreactivity
12 | QVQLVESGGGLVQAGGSLRLSCAASGSTARYAMGWNRQAPGKERELVAAITGRTGRTNYADSVKGRFTISRDNAKITVYVQMNSLKPEDTAVYYCAKRAWRAVRWTYGYWGQGSQVTVSS | high polyreactivity
13 | QVQLVESGGGLVQAGVSLRLSCAAAGITFGDYSMGWYRQEPGKEMELVAGIYWSGDGTSYADSVKGRFTISRDNAKNTVYLQMYRLKPEDTAVYYFAAYWYYYLMDYWGQGTQVSVSS | low polyreactivity
14 | QVQLVESGGGLVQAGGSLRLSCAASGLTFVFYAMGWYRQAPGNERELVAAISWSTGRTYYADSVKGRFTISRDNAKNTVYLQMNSLKPEDTAVYYCAASYLGRKYDYWGQGTQVTVSS | high polyreactivity
15 | QVQLVESGGGLVQAGGSLRLSCAASGSIFDYYAMGWYRQAPGKERELVAAIRRIGGITYYADSVKGRFTISRDNAKNTVYLQMNSLKPEDTAVYYCNVLVKHSTTTYSTYDYWGQGTQVTVSS | high polyreactivity
16 | QVQLVESGGGLVQAGGSLRLSCAASGLTFRGYTMGWYRQAPGKERELVARITYSGGSTYYADSVKGRFTISRDNAKNTVYLQMNSLKPEDTAVYYCAKEIWRHWTGDYWGQGTQVTVSS | high polyreactivity
17 | QVQLVESGGGLVQAGGSLRLSCAASGSIFVWYAMGWYRQAPGKERELVAAITSSGGSTYYADSVKGRFTISRDYAKNTVYLQLNSLKPEDTAVYYCAKTPSRRGYYWGQGTQVTVSS | low polyreactivity
18 | QVQLVESGGGLVQARGSLRLSCAASGIIFGYNAKGWYRQAPGKERELVAVITWNGGSTYYADSVKGCFTISRDNAKNTVYLQMNSLKPEDTAVYYCNAGDDYAYGVELSYDYWGQGTQVTVSS | low polyreactivity
19 | QVQLVESGGGLVQAGGSLRLSCAASGRIFVGYAMGWYRQAPGKERELVAAINRSGSSKYYADSVKGRFTISRDNAKNTVYLQMNSLKTEDTAVYYCNARSGNRYGPRYDYWGQGTQVTVSS | high polyreactivity
20 | QVQLVESGGGLVQPGGSLRLSCAASGLTFPWYAMGWYRQAPGQERELVAAITNSDGNTFADSVKGRFTISRDNAKNSVYLQMNSLKAEDTAVYSCATDTRSLAYYYWGQGTQVTVSS | low polyreactivity
21 | QVQIEESGGGLVQAGGSLRLSCAASGNIFPGNDMGWYRQAPRKERELVAAITSRDGSTYYADSVKGRFTISRDNAKNTVYLQMNSLKPEDTAVYYCNTDPDLYYLATAGYWSHDYWGQGTQVTVSS | low polyreactivity
22 | QVQLVESGGGLVQAGGSLRLSCAASGRIFYRNAMGWYRQAPGKERELVAAISSSTGSTYYADSVKGRFTISRDNAKNTVYLQMNSLKPEDTAVYYCNTARNRARYYYWGQGTQVTVSS | high polyreactivity

Row | Sequence | polyreactivity (PSR sort gate)
23 | QVQLVESGGGLVQAGGSLRLSCAASGFTFDHYAMGWYRQAPGKERELVARITGTGDSTYYADSVKGRFTISRDNAKNTVYLQRNSLKPEDTAVDYCNADRRYDFYDGYGYWGQGTQVTVSS | low polyreactivity
24 | QVQLVDSGGGLVQAGGSLRLSCAASGSIFIINAKGWYRQSPGKERELVAAINSGGSTKYADSVKGRFTISRDNAKNTVYLQMNSLKPEDTAVYYCNAGSRPTAGGMDSWGQGTQVTVSS | low polyreactivity
25 | QVQFVESGGGLVQAGGSLRLSCAASGSTFQGNAMGWYRQAPGKERELVAAISRSGGRTYYADSVKGRFTISRDNAKNTVYLQMNSLKPEDTAVYYCAADAYTGDIPYWWPWNNEYDYWGQGTQVTVSS | low polyreactivity
26 | QVQLVESGGGLVQAGGSLRLSCAASGRTVLVYTMGWYRQAPGKERELVAAISWSDGSTYYADSVKGRFTMSRDNAKNTVYLHMNSLKPEDTAVYYCAARTFSAFWRGGYDYWGQGTQVTVSS | low polyreactivity
27 | QVQLVESGGGLVQAGGSLRLSCAASGSIFGYNAMGWYRQAPGKERELVAAIRISTDNTYYADSVKGRFTISRDNAKNTVYLQMNSLKPEDTAVYYCAADEYWWGYYYWGQGSQVTVSS | high polyreactivity
28 | QVQLVESGGRLVQAGGSLRLSCAASGFTYSPYAMGWYRQAPWKESELVAAITSSGGSTYYADSVKGRFTISRDNANNSVYLQMKSLKPEDTAVYYSAADYGYKYYWRYGYWGQGTQVTVSS | high polyreactivity
29 | QVQLVESAGGLVQAGGSLRLSCAASGLTFVPNAMGWYRQAPGKEREFVAAISNNGGRTYYADSVKGRFTISRDNAKNTVYLEMNSLKPEDTAVYYCAKFLSPGERHSYDYWGQGTQVTVSS | high polyreactivity
30 | QVQLVESGGGLVQAGGSLRLSCAASGRIFYRYAMGWYRQAPGKERELVASISGSGGRTYYADSVKGRFTISRDNAKNTVYLQMNSLKPEDTAVYYCAARIRPSYDWGQGTQVTVSS | high polyreactivity
31 | QVQLVESGGGLVQAGGSLRLSCAASGFILGTNAMGWYRQAPGKERELVAAISYSGGSTNYADSVKGRFTISRDNAKNTVYLQMYSLKPEDTPVYYCNRDPRKYGKLDYWGQGTQVTVSS | low polyreactivity
32 | QVQLVESGGGLVQAGGSLRLSCAASGIIFEYYAMGWYRQAPGKEWELVAAITDDGVVTYYGDSVKGRFTISRDNAKNTVYLQMNSLKPEDTAVYYCAAESYWTATYTYDYWGQGTQVTVSS | high polyreactivity
33 | QVQIVESGGGLVQAGGSLRLSCAASGRIRSYAMGWYRQAPGKERELVAAISSRGGSTYYADSVKGRFTISRDNAKNTVYLLMNSLKPEDTAVYYCAKGGYCGQGTQVTVSS | high polyreactivity
34 | QVQLVESGGGLVQAGGSLRLSCAASGRTFKQYAMGCYRQAPGKERELVAVITRTGGSTYYADSVKGRFTISRDNAKNTVYLLMNSLKPEDTAVYYCARYPPRGYIAWRYYDYDYWGQGTQVTVSS | high polyreactivity
35 | QVQLVESGGGLVQAGGSLRLSCAASGSTFSYNAMGWYRPAPGKERELVAAISGSGGTTYYADSVKGRFTISRDNAKNTVYLQMNSLKPEDTAVYYCNAYVRRTRDYDYWGQGTQVTVSS | high polyreactivity
36 | QEQLQESGGGLVQEGGSLRLSCAASGNISPPADMGWYRQAPGKERELVASIGTGGTTNYADSVKGRFTISRDNAINTVYLQMNSLKPDDTAVYYCAAVRYEYNPYDYWGQGTQVTVSS | low polyreactivity
37 | QVQLVESGGGLVQAGGSLRLSCAASGFIFGWNAMGWYRQAPGKERELVAGISRGGRTYYADSVKGRFTISRDNAKNTVYLQMNSLKPEDTAVYYCNKRLYSSSAVDAYGYWGQGTQVTVSS | high polyreactivity
38 | QVQLVESGGGLVQAGGRLRLSCAASGYIFGWNAMGWYRQAPGKERELVAAISSGGNTKYADSVKGRFTISRDNAKNTVYLQMNSLKPEDTAVYYCNADFRVYIPHVPYFVDFDYWGQGTQVTVSS | low polyreactivity
39 | QVQLVESGGGLVQAGGSLRLSCAASGFTFVEYAMGWYRQAPGKERELVASIRRSGGRTYYADSVKGRFTISRDNAKNTVYLQMNSLKPEDTAVYYCAKSVPRYYSKSGLAYEFDYWGQGTQVTVSS | low polyreactivity
40 | QVQLVESGGGLVQAGGSLRISCAASGRTFRHYAMGWYIQAPGKEREFVAAISRSGGSTRYADSVKGRFTISRDNAKNSVYLQMNSLKPEDTAVYYCAATSRSYNDYDYWGQGTQVTVSS | high polyreactivity
41 | QVQLVESVGGLVQAGGSLRLSCAASGSIFAVNAMGWYRKAPGTERELVAAITSSGVDTYYADSVKGRFTISRDNAKNTVYLQMNSLKPEDTAVYYCAADDQLNWYDYWGQGTQVTVSS | low polyreactivity
42 | QVQLEESGGGLVQAGGSLRLSCAASGITFSLYVMGWFRPAPGKESELVATISFNVASTYADSVKGRFTISRVNAKNTVYLQMYSLTPEDTAVYYCNADTYWYRDSRYDYCGQGTQVTVSS | low polyreactivity
43 | QVQLVESGGGLVQAGGSLRLSCAASGRTFRGYVMGWYRQAPGKERELVASISYSGGSTYYADSVKGRFTISRDNAKNTVYLQMNSLKPEDTAVYYCAARKGYDQYRWRYSQNNYWGQGTQVTVSS | high polyreactivity

Reference: the nanobody polyreactivity screen of Harvey et al. (2022)
